Assay [1] has as its target human collagen type I (acid soluble, extracted from placenta, Sigma C7774) (human) (UniProt P02452). The assay can be described thus: dried collagen assay.
Assay [2] addresses rat collagen (acid soluble, type I, rat tail, Upstate 08-115) (rat) (UniProt P02454). The assay can be described thus: dried collagen assay.

Bridge positions count the residues as written; N and C are the ends. Square brackets hold non-standard residues; d marks the D form. Ends that are not written are not given here.

Chain of human collagen type I (acid soluble, extracted from placenta, Sigma C7774) (human) (P02452 162-1218 limits assumed, chain 1 of 2): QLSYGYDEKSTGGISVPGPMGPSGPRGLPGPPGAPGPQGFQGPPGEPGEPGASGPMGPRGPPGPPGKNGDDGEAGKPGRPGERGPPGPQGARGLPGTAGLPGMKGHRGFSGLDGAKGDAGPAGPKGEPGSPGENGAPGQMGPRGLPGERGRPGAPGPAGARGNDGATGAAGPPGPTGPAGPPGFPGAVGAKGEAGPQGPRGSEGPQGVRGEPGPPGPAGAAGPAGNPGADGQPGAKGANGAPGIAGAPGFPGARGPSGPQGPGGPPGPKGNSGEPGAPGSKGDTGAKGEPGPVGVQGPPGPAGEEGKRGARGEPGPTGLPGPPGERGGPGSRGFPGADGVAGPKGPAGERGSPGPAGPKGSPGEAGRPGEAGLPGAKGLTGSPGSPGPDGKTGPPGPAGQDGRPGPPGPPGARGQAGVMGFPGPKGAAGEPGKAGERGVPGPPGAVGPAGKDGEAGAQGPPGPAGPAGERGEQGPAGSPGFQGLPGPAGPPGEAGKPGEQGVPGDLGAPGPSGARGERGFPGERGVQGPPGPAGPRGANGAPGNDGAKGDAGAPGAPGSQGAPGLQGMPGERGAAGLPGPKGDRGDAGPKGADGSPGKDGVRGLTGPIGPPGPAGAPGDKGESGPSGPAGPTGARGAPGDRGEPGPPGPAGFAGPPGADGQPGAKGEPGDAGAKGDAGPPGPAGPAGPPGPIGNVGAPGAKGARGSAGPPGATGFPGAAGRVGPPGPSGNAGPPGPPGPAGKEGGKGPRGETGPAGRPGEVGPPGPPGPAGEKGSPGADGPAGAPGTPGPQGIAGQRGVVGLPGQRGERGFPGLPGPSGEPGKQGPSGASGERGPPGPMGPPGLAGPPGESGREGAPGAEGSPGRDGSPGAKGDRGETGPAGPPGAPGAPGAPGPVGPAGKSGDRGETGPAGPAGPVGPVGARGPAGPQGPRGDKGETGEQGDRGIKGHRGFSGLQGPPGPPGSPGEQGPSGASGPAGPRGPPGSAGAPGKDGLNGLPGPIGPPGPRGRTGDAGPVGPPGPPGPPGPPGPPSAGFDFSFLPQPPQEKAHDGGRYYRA
Chain of human collagen type I (acid soluble, extracted from placenta, Sigma C7774) (human) (P08123 80-1119 limits assumed, chain 2 of 2, further chain): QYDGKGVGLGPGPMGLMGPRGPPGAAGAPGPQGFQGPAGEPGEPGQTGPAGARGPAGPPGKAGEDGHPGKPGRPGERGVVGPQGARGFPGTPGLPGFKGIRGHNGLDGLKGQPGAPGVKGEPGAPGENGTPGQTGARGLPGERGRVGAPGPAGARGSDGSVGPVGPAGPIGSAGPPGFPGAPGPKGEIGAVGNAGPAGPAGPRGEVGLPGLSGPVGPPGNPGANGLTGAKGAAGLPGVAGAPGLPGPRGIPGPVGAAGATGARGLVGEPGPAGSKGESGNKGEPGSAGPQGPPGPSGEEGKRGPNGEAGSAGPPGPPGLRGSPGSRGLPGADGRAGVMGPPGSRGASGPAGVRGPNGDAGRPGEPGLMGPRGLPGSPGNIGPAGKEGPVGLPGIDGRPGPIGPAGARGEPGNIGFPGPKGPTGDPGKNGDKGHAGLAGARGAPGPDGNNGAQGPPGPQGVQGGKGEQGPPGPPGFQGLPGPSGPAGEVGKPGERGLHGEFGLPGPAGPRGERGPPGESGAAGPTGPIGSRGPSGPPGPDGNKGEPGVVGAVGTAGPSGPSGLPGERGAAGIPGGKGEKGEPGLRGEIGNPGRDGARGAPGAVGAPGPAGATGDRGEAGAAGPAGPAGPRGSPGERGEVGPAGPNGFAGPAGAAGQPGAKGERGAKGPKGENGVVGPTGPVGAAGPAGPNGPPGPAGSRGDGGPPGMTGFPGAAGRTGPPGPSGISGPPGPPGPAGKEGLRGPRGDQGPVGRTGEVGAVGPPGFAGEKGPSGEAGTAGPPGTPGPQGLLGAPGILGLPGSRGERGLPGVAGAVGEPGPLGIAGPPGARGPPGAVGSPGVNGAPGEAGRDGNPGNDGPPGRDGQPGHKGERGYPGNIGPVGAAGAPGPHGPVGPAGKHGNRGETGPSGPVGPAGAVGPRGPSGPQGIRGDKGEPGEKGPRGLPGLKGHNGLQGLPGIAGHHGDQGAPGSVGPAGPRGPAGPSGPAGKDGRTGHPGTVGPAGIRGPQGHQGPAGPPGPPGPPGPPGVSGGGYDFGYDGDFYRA
Chain of rat collagen (acid soluble, type I, rat tail, Upstate 08-115) (rat) (P02454 152-1207, chain 1 of 2): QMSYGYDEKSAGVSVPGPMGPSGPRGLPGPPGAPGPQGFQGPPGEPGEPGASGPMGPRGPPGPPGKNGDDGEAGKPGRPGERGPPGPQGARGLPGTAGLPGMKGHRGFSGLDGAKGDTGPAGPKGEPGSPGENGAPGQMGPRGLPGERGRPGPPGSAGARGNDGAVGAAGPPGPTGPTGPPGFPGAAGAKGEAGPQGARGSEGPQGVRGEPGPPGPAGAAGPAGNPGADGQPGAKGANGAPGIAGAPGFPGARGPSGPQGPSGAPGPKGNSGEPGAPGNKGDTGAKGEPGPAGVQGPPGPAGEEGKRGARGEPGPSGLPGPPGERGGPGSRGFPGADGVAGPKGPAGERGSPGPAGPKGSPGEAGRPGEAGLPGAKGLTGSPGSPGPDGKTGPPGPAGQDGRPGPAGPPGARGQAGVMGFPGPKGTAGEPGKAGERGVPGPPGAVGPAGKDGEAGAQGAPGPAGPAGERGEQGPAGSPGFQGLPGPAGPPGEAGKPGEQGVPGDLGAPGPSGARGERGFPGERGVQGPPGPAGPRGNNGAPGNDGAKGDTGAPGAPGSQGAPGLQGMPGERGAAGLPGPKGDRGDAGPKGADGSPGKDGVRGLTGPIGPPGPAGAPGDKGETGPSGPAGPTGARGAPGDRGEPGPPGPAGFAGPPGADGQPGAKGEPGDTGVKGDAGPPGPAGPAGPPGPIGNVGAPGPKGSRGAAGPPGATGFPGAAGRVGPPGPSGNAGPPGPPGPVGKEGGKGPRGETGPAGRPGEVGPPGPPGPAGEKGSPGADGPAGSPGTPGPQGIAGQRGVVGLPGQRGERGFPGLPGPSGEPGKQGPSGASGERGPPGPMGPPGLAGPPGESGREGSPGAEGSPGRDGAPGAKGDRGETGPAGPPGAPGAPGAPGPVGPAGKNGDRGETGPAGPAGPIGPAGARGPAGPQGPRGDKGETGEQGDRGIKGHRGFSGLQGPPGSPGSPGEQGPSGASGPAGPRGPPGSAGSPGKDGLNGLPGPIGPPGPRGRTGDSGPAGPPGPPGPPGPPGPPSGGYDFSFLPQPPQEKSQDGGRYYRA
Chain of rat collagen (acid soluble, type I, rat tail, Upstate 08-115) (rat) (P02466 86-1125, chain 2 of 2, further chain): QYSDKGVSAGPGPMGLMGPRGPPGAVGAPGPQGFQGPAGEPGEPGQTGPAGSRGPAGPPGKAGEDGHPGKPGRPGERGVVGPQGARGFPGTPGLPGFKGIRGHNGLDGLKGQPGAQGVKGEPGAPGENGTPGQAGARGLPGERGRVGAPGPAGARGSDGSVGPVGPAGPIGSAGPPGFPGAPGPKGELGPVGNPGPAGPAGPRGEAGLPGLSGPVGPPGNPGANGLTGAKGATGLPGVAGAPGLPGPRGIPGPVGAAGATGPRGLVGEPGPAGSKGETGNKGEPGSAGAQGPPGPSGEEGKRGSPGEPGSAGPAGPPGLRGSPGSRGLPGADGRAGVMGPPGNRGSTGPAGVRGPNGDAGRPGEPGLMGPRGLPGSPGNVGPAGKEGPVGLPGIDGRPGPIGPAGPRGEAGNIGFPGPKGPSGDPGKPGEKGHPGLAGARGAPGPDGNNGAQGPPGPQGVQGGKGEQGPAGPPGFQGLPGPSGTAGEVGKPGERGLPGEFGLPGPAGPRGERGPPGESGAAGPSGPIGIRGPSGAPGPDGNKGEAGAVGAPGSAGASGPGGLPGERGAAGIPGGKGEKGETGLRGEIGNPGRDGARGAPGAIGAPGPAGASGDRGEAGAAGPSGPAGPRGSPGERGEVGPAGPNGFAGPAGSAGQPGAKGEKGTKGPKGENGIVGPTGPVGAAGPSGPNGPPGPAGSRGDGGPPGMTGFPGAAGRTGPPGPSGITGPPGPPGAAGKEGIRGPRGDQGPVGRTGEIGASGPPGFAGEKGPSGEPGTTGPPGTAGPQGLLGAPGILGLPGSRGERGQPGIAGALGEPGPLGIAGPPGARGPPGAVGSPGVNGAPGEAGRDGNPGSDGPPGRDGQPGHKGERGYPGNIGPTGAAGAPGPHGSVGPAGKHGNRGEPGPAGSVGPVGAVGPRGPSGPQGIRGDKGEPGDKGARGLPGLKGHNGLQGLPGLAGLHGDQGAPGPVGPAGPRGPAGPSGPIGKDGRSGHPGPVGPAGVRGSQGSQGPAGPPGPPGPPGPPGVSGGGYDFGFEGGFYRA

Turning to FWTCELDFRQSWYCYDK (disulfide 4-14 (inferred); not fully specified) [SEQ ID NO: 79], the Dried Human Collagen Binding in assay [1] stood at 8%. For the molecule GQW[dT]CSGDEYTWHCNYE (disulfide 5-14 (inferred)) [SEQ ID NO: 166], the % Collagen Binding came to 2% in assay [1] and 3% in assay [2].

In the case of GQWTCSGDEYAWHCNY[dE] (disulfide 5-14 (inferred)) [SEQ ID NO: 126], the % Collagen Binding came to 68% in assay [1] and 73% in assay [2]. On to TWACDLDEYGGWQCYTG (disulfide 4-14 (inferred); also: C-terminal amide likely (Rink amide resin)) [SEQ ID NO: 78], for which, in assay [1], the Dried Human Collagen Binding was determined as 8%. On the same count and under the same terms, as for SWHCFLENHHWMCSDH (disulfide 4-13 (inferred); also: C-terminus likely amidated (Rink amide resin)) [SEQ ID NO: 68], the figure is 5%. As for KWECVHTKGEWYCETK (disulfide 4-13 (inferred); also: C-terminus likely amidated (Rink amide resin)) [SEQ ID NO: 65], the Dried Human Collagen Binding in assay [1] is 7%. The same measure, in the same setting: as for VWACRGGTTNWHCDL (disulfide 4-13; also: C-terminus probably amidated (Rink amide resin)) [SEQ ID NO: 41], the figure is 1%. Same read-out and setting: as for PWWCHEMPSMCFGF (disulfide 4-11; also: C-terminus probably amidated (Rink amide resin)) [SEQ ID NO: 3], the figure is 2%. Same read-out and setting: as for GWTCSQPGANVWNCTMQ (disulfide 4-14; not fully specified (C-terminus)) [SEQ ID NO: 85], the figure is 3%. Consider LWTCSMDRNYDWVCGEK (disulfide 4-14; not fully specified (C-terminus)) [SEQ ID NO: 82], for which the Dried Human Collagen Binding in assay [1] was 3%. The same measure, in the same setting: with TWMCVDPPLWRCWVQ (disulfide 4-12; also: C-terminus probably amidated (Rink amide resin)) [SEQ ID NO: 4] the figure was 45%.

For the molecule GQWTCSGDEYSWHCNY[dE] (disulfide 5-14 (inferred)) [SEQ ID NO: 125], the % Collagen Binding in assay [1] was determined as 85%; in assay [2], 86%.

On to HWSCDLAMDNEWFCSTK (disulfide 4-14; not fully specified (C-terminus)) [SEQ ID NO: 84], for which the Dried Human Collagen Binding in assay [1] came to 3%. As to PWTCSGDEYAWHCNYE [SEQ ID NO: 121], the % Collagen Binding in assay [1] came to 57%; in assay [2] it was 72%.

For the molecule GQWTC[dS]GDEYTWHCNYE (disulfide 5-14 (inferred)) [SEQ ID NO: 168], the % Collagen Binding in assay [1] is 3%; in assay [2], 2%. On to YHACYQAGCWIW (disulfide 4-9; not fully specified (C-terminus)) [SEQ ID NO: 1], for which the Dried Human Collagen Binding in assay [1] was 56%. On the same count and under the same terms, as for RWSCVLDADGWVCSDN (disulfide 4-13 (inferred); also: C-terminus likely amidated (Rink amide resin)) [SEQ ID NO: 66], the figure is 6%. GQ[dW]TCSGDEYTWHCNYE (disulfide 5-14 (inferred)) [SEQ ID NO: 165]: the % Collagen Binding in assay [1] is 2%; in assay [2], 4%. The molecule TWICSHNDKGWTCGDQ (disulfide 4-13 (inferred); also: C-terminus likely amidated (Rink amide resin)) [SEQ ID NO: 64] showed a Dried Human Collagen Binding in assay [1] of 8%. With YHACYQAGCWAW (disulfide 4-9; not fully specified) [SEQ ID NO: 137], the % Collagen Binding in assay [2] came out at 7%. With G[dQ]WTCSGDEYTWHCNYE (disulfide 5-14 (inferred)) [SEQ ID NO: 164], the values for the % Collagen Binding in assay [1] and in assay [2] were 46% and 31%, respectively. Turning to GWQCSGDASVWNCDWI (disulfide 4-13; also: C-terminus probably amidated (Rink amide resin)) [SEQ ID NO: 39], the Dried Human Collagen Binding in assay [1] was determined as 6%. For the molecule DWTCSGDEYAWHCNYE [SEQ ID NO: 120], the values for the % Collagen Binding in assay [1] and in assay [2] were 38% and 28%, respectively. In turn, GWSCHSMDMQWHCDFS (disulfide 4-13 (inferred); also: C-terminus likely amidated (Rink amide resin)) [SEQ ID NO: 67] yielded a Dried Human Collagen Binding in assay [1] of 5%. Turning to GQWTCSGDEY[dA]WHCNA[dE] (disulfide 5-14 (inferred)) [SEQ ID NO: 124], the % Collagen Binding in assay [1] turned out to be 24%; in assay [2], 17%. For the molecule GWACNTTSKGDWECTNL (disulfide 4-14; not fully specified (C-terminus)) [SEQ ID NO: 83], the Dried Human Collagen Binding in assay [1] was determined as 3%. With NWYCSQALDNWSCKLR (disulfide 4-13; also: C-terminus likely amidated (Rink amide resin)) [SEQ ID NO: 63], the Dried Human Collagen Binding in assay [1] worked out at 8%.

In the case of GQWTCSADEYTWHCNYE (disulfide 5-14; not fully specified) [SEQ ID NO: 142], in assay [2], the % Collagen Binding came out at 6%.

In assay [1], QWFCEMDEYGKWNCGMM (disulfide 4-14; not fully specified (C-terminus)) [SEQ ID NO: 81] displayed a Dried Human Collagen Binding of 3%. On to GQWT[dC]SGDEYTWHCNYE (disulfide 5-14 (inferred)) [SEQ ID NO: 167], for which the % Collagen Binding in assay [1] stood at 4%; in assay [2] it was 0%.

For the origin of these results see patent publication US20080058636A1, “METHODS OF MYOCARDIAL IMAGING” (Epix Pharmaceuticals, Inc., priority 2005, published 2008).
